The supplement of paper PMC11316812
± gives the standard deviation of the averaged measurements.

Legend:
MCF7 = assay: percentage of EdU-negative (G0-arrested) nuclei per well, 72 h; higher = more G0 arrest; conditions: reference: sequence is the full UniProt precursor, the tested protein was the secreted form or ectodomain
hTERT-HMEC = assay: as above; conditions: reference: sequence is the full UniProt precursor, the tested protein was the secreted form or ectodomain
[1] = protein concentration 0.0225 µM
[2] = protein concentration 0.02117 µM
[3] = protein concentration 0.2117 µM
[4] = protein concentration 0.0135 µM
[5] = protein concentration 0.00685714 µM
[6] = protein concentration 0.0685714 µM
[7] = protein concentration 0.0175 µM
[8] = protein concentration 0.03125 µM
[9] = protein concentration 0.3125 µM
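Further: secreted proteins added to cultured cells, EdU pulse at the end, nuclei found by Hoechst imaging, EdU status from nuclear versus surrounding ring intensity ratio, PBS as neutral control.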

In the case of “MTLTLSVLICLGLSVGPRTCVQAGTLPKPTLWAEPASVIARGKPVTLWCQGPLETEEYRLDKEGLPWARKRQNPLEPGAKAKFHIPSTVYDSAGRYRCYYETPAGWSEPSDPLELVATGFYAEPTLLALPSPVVASGGNVTLQCDTLDGLLTFVLVEEEQKLPRTLYSQKLPKGPSQALFPVGPVTPSCRWRFRCYYYYRKNPQVWSNPSDLLEILVPGVSRKPSLLIPQGSVVARGGSLTLQCRSDVGYDIFVLYKEGEHDLVQGSGQQPQAGLSQANFTLGPVSRSHGGQYRCYGAHNLSPRWSAPSDPLDILIAGLIPDIPALSVQPGPKVASGENVTLLCQSWHQIDTFFLTKEGAAHPPLCLKSKYQSYRHQAEFSMSPVTSAQGGTYRCYSAIRSYPYLLSSPSYPQELVVSGPSGDPSLSPTGSTPTPGPEDQPLTPTGLDPQSGLGRHLGVVTGVSVAFVLLLFLLLFLLLRHRHQSKHRTSAHFYRPAGAAGPEPKDQGLQKRASPVADIQEEILNAAVKDTQPKDGVEMDAPAAASEAPQDVTYAQLHSLTLRREATEPPPSQEREPPAEPSIYAPLAIH”, the “percentage of EdU-negative” value (MCF7; [1]) is reported as 26.64 ± 0.18%, the “percentage of EdU-negative” value (MCF7; protein concentration 0.225 µM) is reported as 24.8 ± 1.6% and the “percentage of EdU-negative” value (hTERT-HMEC; [1]) is reported as 5.56 ± 0.57%. For the same sequence, the “percentage of EdU-negative” value (hTERT-HMEC; protein concentration 0.225 µM) was 4.64 ± 0.082%.

With “MSPLLRRLLLAALLQLAPAQAPVSQPDAPGHQRKVVSWIDVYTRATCQPREVVVPLTVELMGTVAKQLVPSCVTVQRCGGCCPDDGLECVPTGQHQVRMQILMIRYPSSQLGEMSLEEHSQCECRPKKKDSAVKPDRAATPHHRPQPRSVPGWDSAPGAPSPADITHPTPAPGPSAHAAPSTTSALTPGPAAAAADAAASSVAKGGA” the “percentage of EdU-negative” value (MCF7; [2]) was 25 ± 0.51%, the “percentage of EdU-negative” value (MCF7; [3]) was 26.88 ± 0.25% and the “percentage of EdU-negative” value (hTERT-HMEC; [2]) was 4.57 ± 0.19%. For the same sequence, the “percentage of EdU-negative” value (hTERT-HMEC; [3]) was 6.4 ± 1.3%.

With “MWLLVSVILISRISSVGGEATFCDFPKINHGILYDEEKYKPFSQVPTGEVFYYSCEYNFVSPSKSFWTRITCTEEGWSPTPKCLRLCFFPFVENGHSESSGQTHLEGDTVQIICNTGYRLQNNENNISCVERGWSTPPKCRSTDTSCVNPPTVQNAHILSRQMSKYPSGERVRYECRSPYEMFGDEEVMCLNGNWTEPPQCKDSTGKCGPPPPIDNGDITSFPLSVYAPASSVEYQCQNLYQLEGNKRITCRNGQWSEPPKCLHPCVISREIMENYNIALRWTAKQKLYLRTGESAEFVCKRGYRLSSRSHTLRTTCWDGKLEYPTCAKR” the “percentage of EdU-negative” value (MCF7; [4]) was 25.1 ± 1.9%, the “percentage of EdU-negative” value (MCF7; protein concentration 0.135 µM) was 25.3 ± 0.89% and the “percentage of EdU-negative” value (hTERT-HMEC; [4]) was 5.26 ± 0.45%. For the same sequence, the “percentage of EdU-negative” value (hTERT-HMEC; protein concentration 0.135 µM) was 5.53 ± 0.48%.

In the case of “MSAAWIPALGLGVCLLLLPGPAGSEGAAPIAITCFTRGLDIRKEKADVLCPGGCPLEEFSVYGNIVYASVSSICGAAVHRGVISNSGGPVRVYSLPGRENYSSVDANGIQSQMLSRWSASFTVTKGKSSTQEATGQAVSTAHPPTGKRLKKTPEKKTGNKDCKADIAFLIDGSFNIGQRRFNLQKNFVGKVALMLGIGTEGPHVGLVQASEHPKIEFYLKNFTSAKDVLFAIKEVGFRGGNSNTGKALKHTAQKFFTVDAGVRKGIPKVVVVFIDGWPSDDIEEAGIVAREFGVNVFIVSVAKPIPEELGMVQDVTFVDKAVCRNNGFFSYHMPNWFGTTKYVKPLVQKLCTHEQMMCSKTCYNSVNIAFLIDGSSSVGDSNFRLMLEFVSNIAKTFEISDIGAKIAAVQFTYDQRTEFSFTDYSTKENVLAVIRNIRYMSGGTATGDAISFTVRNVFGPIRESPNKNFLVIVTDGQSYDDVQGPAAAAHDAGITIFSVGVAWAPLDDLKDMASKPKESHAFFTREFTGLEPIVSDVIRGICRDFLESQQ”, the “percentage of EdU-negative” value (MCF7; [5]) is reported as 23.1 ± 2.5%, the “percentage of EdU-negative” value (MCF7; [6]) is reported as 25.4 ± 0.26% and the “percentage of EdU-negative” value (hTERT-HMEC; [5]) is reported as 4.89 ± 0.28%. The “percentage of EdU-negative” value (hTERT-HMEC; [6]) was 7.63 ± 0.47%.

“MQSVQSTSFCLRKQCLCLTFLLLHLLGQVAATQRCPPQCPGRCPATPPTCAPGVRAVLDGCSCCLVCARQRGESCSDLEPCDESSGLYCDRSADPSNQTGICTAVEGDNCVFDGVIYRSGEKFQPSCKFQCTCRDGQIGCVPRCQLDVLLPEPNCPAPRKVEVPGECCEKWICGPDEEDSLGGLTLAAYRPEATLGVEVSDSSVNCIEQTTEWTACSKSCGMGFSTRVTNRNRQCEMLKQTRLCMVRPCEQEPEQPTDKKGKKCLRTKKSLKAIHLQFKNCTSLHTYKPRFCGVCSDGRCCTPHNTKTIQAEFQCSPGQIVKKPVMVIGTCTCHTNCPKNNEAFLQELELKTTRGKM” was tested, and the “percentage of EdU-negative” value (MCF7; [7]) was 26.6 ± 2.9%, the “percentage of EdU-negative” value (MCF7; protein concentration 0.175 µM) was 26.7 ± 4.2% and the “percentage of EdU-negative” value (hTERT-HMEC; [7]) was 4.53 ± 0.15%. For the same sequence, the “percentage of EdU-negative” value (hTERT-HMEC; protein concentration 0.175 µM) was 15.1 ± 2.2%.

“MGRGWGFLFGLLGAVWLLSSGHGEEQPPETAAQRCFCQVSGYLDDCTCDVETIDRFNNYRLFPRLQKLLESDYFRYYKVNLKRPCPFWNDISQCGRRDCAVKPCQSDEVPDGIKSASYKYSEEANNLIEECEQAERLGAVDESLSEETQKAVLQWTKHDDSSDNFCEADDIQSPEAEYVDLLLNPERYTGYKGPDAWKIWNVIYEENCFKPQTIKRPLNPLASGQGTSEENTFYSWLEGLCVEKRAFYRLISGLHASINVHLSARYLLQETWLEKKWGHNITEFQQRFDGILTEGEGPRRLKNLYFLYLIELRALSKVLPFFERPDFQLFTGNKIQDEENKMLLLEILHEIKSFPLHFDENSFFAGDKKEAHKLKEDFRLHFRNISRIMDCVGCFKCRLWGKLQTQGLGTALKILFSEKLIANMPESGPSYEFHLTRQEIVSLFNAFGRISTSVKELENFRNLLQNIH [Q96HE7]” was tested, and the “percentage of EdU-negative” value (MCF7; [8]) was 26.32 ± 0.034%, the “percentage of EdU-negative” value (MCF7; [9]) was 25.7 ± 0.52% and the “percentage of EdU-negative” value (hTERT-HMEC; [8]) was 6.24 ± 0.39%. The “percentage of EdU-negative” value (hTERT-HMEC; [9]) was 6.47 ± 0.033%.
